The target of this test is T1, human amylin receptor (AMY3) on CHO-K1/Ga15/AMY3 cells (human, UniProt P30988 25-474; O60896 24-148).
T1 sequence (looked up) 1: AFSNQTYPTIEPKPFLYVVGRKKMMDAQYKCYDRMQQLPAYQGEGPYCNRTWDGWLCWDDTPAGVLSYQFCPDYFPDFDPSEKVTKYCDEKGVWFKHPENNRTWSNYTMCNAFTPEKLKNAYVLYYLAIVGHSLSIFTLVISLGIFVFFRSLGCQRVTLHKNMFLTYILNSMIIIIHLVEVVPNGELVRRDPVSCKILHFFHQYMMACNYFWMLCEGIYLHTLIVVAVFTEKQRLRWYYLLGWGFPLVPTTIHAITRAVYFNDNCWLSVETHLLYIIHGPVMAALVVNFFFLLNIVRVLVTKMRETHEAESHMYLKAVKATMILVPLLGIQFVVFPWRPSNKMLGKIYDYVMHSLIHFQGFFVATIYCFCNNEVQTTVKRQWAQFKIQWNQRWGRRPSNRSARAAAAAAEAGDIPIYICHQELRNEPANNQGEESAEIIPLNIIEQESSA
T1 sequence (looked up) 2: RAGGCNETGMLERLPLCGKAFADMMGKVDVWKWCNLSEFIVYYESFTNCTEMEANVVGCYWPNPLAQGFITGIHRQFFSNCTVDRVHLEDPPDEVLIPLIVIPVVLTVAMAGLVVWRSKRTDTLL
Kind of test: cell-based or functional assay.

*1 amine or outer side, *2 acyl side, *3 side chain or, on linkers, in order; H or OH if unused. Bridges are numbered along the chain shown (N, C = ends). Primed or numbered codes have the meaning given here. Where no end group is shown, it is not given here. Side-chain parts run from the residue outwards. [ ]: non-standard residue; d: D form. The star is where a group is joined. C20 diacid = O=C(O)CCCCCCCCCCCCCCCCCCC(=O)*; γGlu = O=C(O)[C@H](CCC(=O)[*:2])N[*:1]; βAsp = O=C(O)[C@H](CC(=O)[*:2])N[*:1]; Hyp = O=C(O)[C@@H]1C[C@@H](O)CN1; Inp′ = not defined here; Trx′ = not defined here; AOC = not defined here; PEG = not defined here; AEEA = NCCOCCOCC(=O)O

Consider {C20 diacid-AEEA-AEEA-γGlu}-KCNTATCATQRLADFLRHSSNNLKPILPPTNVGSNT[Hyp]-NH2 (disulfide 2-7 (inferred)) [PD176], for which the “EC50, CRE-luciferase assay” value was 0.029 nM.

Regarding {C20 diacid-Trx′-AEEA-AEEA}-KCNTATCATQRLADFLRHSSNNLKPILPPTNVGSNT[Hyp]-NH2 (disulfide 2-7 (inferred); reading uncertain) [PD177], the “EC50, CRE-luciferase assay” value was determined as 0.024 nM.

With {C20 diacid-Inp′-AEEA-AEEA}-KCNTATCATQRLADFLRHSSNNLKPILPPTNVGSNT[Hyp]-NH2 (disulfide 2-7 (inferred)) [PD179], the “EC50, CRE-luciferase assay” value turned out to be 0.017 nM.

Regarding {C20 diacid-AEEA-AEEA-Trx′}-KCNTATCATQRLADFLRHSSNNLKPILPPTNVGSNT[Hyp]-NH2 (disulfide 2-7 (inferred); reading uncertain) [PD178], the “EC50, CRE-luciferase assay” value is 0.017 nM.

As for {C20 diacid-AEEA-AEEA-Inp′}-KCNTATCATQRLADFLRHSSNNLKPILPPTNVGSNT[Hyp]-NH2 (disulfide 2-7 (inferred)) [PD180], the “EC50, CRE-luciferase assay” value is 0.016 nM.

Regarding {C20 diacid-γGlu}-KCNTATCATQRLADFLRHSSNNL[AOC]PILPPTNVGSNTP-NH2 (disulfide 2-7 (inferred); reading uncertain) [PD174], the “EC50, CRE-luciferase assay” value amounted to 0.046 nM.

As for {C20 diacid-βAsp-AEEA-AEEA}-KCNTATCATQRLADFLRHSSNNLKPILPPTNVGSNT[Hyp]-NH2 (disulfide 2-7 (inferred)) [PD183], the “EC50, CRE-luciferase assay” value was 0.04 nM.

{C20 diacid-γGlu}-KCNTATCATQRLADFLRHSSNNL[Trx′]PILPPTNVGSNTP-NH2 (disulfide 2-7 (inferred); reading uncertain) [PD173]: the “EC50, CRE-luciferase assay” value was found to be 0.064 nM.

Take RCNTATCATQRLADFLRHSSNNLK([γGlu-C20 diacid])PILPPTNVGSNTP-NH2 (disulfide 2-7 (inferred)) [PD042]: the “EC50, CRE-luciferase assay” value worked out at 0.111 nM.

Consider {C20 diacid-PEG-PEG-PEG-PEG-PEG-PEG-PEG-PEG-γGlu}-KCNTATCATQRLADFLRHSSNNLKPILPPTNVGSNT[Hyp]-NH2 (disulfide 2-7 (inferred); reading uncertain) [PD186], for which the “EC50, CRE-luciferase assay” value amounted to 0.052 nM.

{C20 diacid}-D[AEEA][AEEA]KCNTATCATQRLADFLRHSSNNLKPILPPTNVGSNT[Hyp]-NH2 (disulfide 5-10 (inferred)) [PD181]: the “EC50, CRE-luciferase assay” value is 0.022 nM.

On to {C20 diacid-AEEA-AEEA-βAsp}-KCNTATCATQRLADFLRHSSNNLKPILPPTNVGSNT[Hyp]-NH2 (disulfide 2-7 (inferred)) [PD184], for which the “EC50, CRE-luciferase assay” value turned out to be 0.037 nM.

{C20 diacid-AEEA-AEEA}-DKCNTATCATQRLADFLRHSSNNLKPILPPTNVGSNT[Hyp]-NH2 (disulfide 3-8 (inferred)) [PD182]: the “EC50, CRE-luciferase assay” value stood at 0.034 nM.

Source of the values: patent publication US20260115256A1 (HANGZHOU SCIWIND BIOSCIENCES, published 2026).
